Legend:
[1] = test system: S. aureus CCUG 35601 (MRSA); assay: Broth microdilution MIC/MBC; type: cell-based, Staphylococcus aureus
From the text: (§1) Staphylococcus aureus CCUG 35601 (MRSA, Culture Collection, University of Gothenburg) and Staphylococcus aureus ATCC 29213 (MSSA, ATCC, Manassas, VA). Staphylococcus epidermidis ATCC 12228 (ATCC, Manassas, VA), RP62A, N15 and 10 clinical isolates of Staphylococcus epidermidis that have previously been characterized. Isolated Escherichia coli, Enterococcus faecium (including VRE), Pseudomonas aeruginosa, Klebsiella pneumoniae, Enterobacter spp and Acinetobacter baumannii were obtained from Orebro University hospital. Isolated Streptococcus mutans, Streptococcus constellatus and Streptococcus anginosus were obtained from Malmo University. The bacteria were grown on Luria-Bertani (LB) agar plates, supplemented with 5% defibrinated horse blood, and incubated at 37° C. overnight. Single colonies were inoculated into 5 ml of LB broth and incubated on a shaker (300 rpm) at 37° C. overnight. The bacterial concentration was determined by viable count and adjusted to correlate with approximately 10^9 CFU/ml.
(§2) The broth microdilution method was used to determine minimal inhibitory concentration (MIC) and minimal bactericidal concentration (MBC). Two-fold serial dilutions of the peptides were used and the final concentrations ranged from 0.097-50 μM. […] The effect of bacteriocin-antibiotic combinations was accomplished by using the same concentration series of antibiotics with a constant concentration of PLNC8 αβ (3.1 μM) in all the wells. […] All experiments were repeated at least three times.

[2] = test system: S. aureus ATCC 29213 (MSSA); assay: Broth microdilution MIC/MBC; type: cell-based, Staphylococcus aureus; conditions: Table 1, peptide alone, 20 h; no unit in table, μM
From the text: as §1, §2

[3] = Table 1, peptide alone, 20 h, no unit in table, μM

B1: PLNC8 αβ: two-peptide class IIb bacteriocin of L. plantarum NC8: PLNC8 α (SEQ ID NO 1) with PLNC8 β (SEQ ID NO 2) (peptide)
alpha: DLTTKLWSSWGYYLGKKARWNLKHPYVQF
beta: SVPTSVYTLGIKILWSAYKHRKTIEKSFNKGFYH
modifications: Lactobacillus plantarum NC8
What does the source list for B1?
MBC [1, 3]: 25 µM; MIC [1, 3]: 12.5 µM; MBC ([1]; Table 3, MRSA, peptide alone): 25 µM; MIC ([1]; Table 3, MRSA, peptide alone): 12.5 µM; MBC [2]: 25 µM; MIC [2]: 12.5 µM

From patent US12064464B2, “Plantaricin NC8 alpha beta markedly enhances the effects of antibiotics” (priority 2018, dated 2024)
